Changes are numbered by the printed parent chain.
B1: MOR06189 IgG (antibody, part only; not given: Light chain, constant regions, V domains shown, part only)
VH: QVQLVESGGGLVQPGGSLRLSCAASGFTFSSYYMNWVRQAPGKGLEWVSAINMIGNVTNYADSVKGRFTISRDNSKNTLYLQMNSLRAEDTAVYYCARDLPLVYTGFAYWGQGTLVTVSS
B2: MOR06190 IgG (antibody, part only; not given: Light chain, constant regions, V domains shown, part only)
VH: B1 VH with A50Y, M53P, I54N, N56M, V57M

Molecular target: human CD38 Fc-fusion aa 45-300 (human) (UniProt P28907)
Assay: ELISA on CD38 Fc-fusion protein, IgG format

Binder | ELISA CD38 Fc-Fusion protein (% Reactivity of MOR03087) [%]
B1 | 126
B2 | 125
